US6979530

Target: T1, Peptide conjugate 9 (DYE^2-Gly-Asp-Glu-Val-Asp-Gly-Ile-Lys-DYE^1)
T1 chain: GDEVDGIK

B1: purified caspase-3 (BD PharMingen) (protein)
chain: SGISLDNSYKMDYPEMGLCIIINNKNFHKSTGMTSRSGTDVDAANLRETFRNLKYEVRNKNDLTREEIVELMRDVSKEDHSKRSSFVCVLLSHGEEGIIFGTNGPVDLKKITNFFRGDRCRSLTGKPKLFIIQACRGTELDCGIETDSGVDDDMACHKIPVEADFLYAYSTAPGYYSWRNSKDGSWFIQSLCAMLKQYADKLEFMHILTRVNRKVATEFESFSFDATFHAKKQIPCIVSMLTKELYFYH
fluorescence excitation and emission spectra before and after adding purified caspase-3 (in vitro cleavage): When purified caspase-3 is added to 9, significant excitation fluorescence (FIG. 6) and significant emission fluorescence is detected (FIG. 7) from the donor dibenzorhodamine dye
time course of donor dye fluorescence emission after mixing with caspase-3 (in vitro cleavage): Emission from the donor dye increased rapidly during the first 5 to 10 minutes and stabilized in about an hour, indicating rapid cleavage.
